Assay results from patent publication US20240261333A1, “NOVEL TARGETS FOR ENHANCING ANTI-TUMOR IMMUNITY” (THE BROAD INSTITUTE, INC., priority 2021, published 2024).

Assays:
[1] = molecular target: PDIA4 (human) (UniProt P13667); assay: IgG control IP from lysate of C-FLAG B3GNT2 cells, mass spectrometry
[2] = molecular target: RCN1 (human) (UniProt Q15293); assay: as above
[3] = molecular target: H1FX (human) (UniProt Q92522); assay: as above
[4] = molecular target: TECR (human) (UniProt Q9NZ01); assay: as above
TECR (human), sequence (Q9NZ01 whole entry): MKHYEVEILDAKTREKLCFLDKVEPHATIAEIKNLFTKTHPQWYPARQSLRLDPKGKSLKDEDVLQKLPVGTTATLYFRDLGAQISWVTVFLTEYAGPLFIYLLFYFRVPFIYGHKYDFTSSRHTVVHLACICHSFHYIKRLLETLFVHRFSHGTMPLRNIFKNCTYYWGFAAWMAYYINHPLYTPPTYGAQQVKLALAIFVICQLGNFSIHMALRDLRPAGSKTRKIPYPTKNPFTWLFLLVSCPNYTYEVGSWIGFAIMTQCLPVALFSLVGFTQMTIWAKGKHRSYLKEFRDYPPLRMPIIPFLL

[5] = molecular target: SFXN3 (human) (UniProt Q9BWM7); assay: as above
[6] = molecular target: PSMA5 (human) (UniProt P28066); assay: as above
[7] = molecular target: FBXO6 (human) (UniProt Q9NRD1); assay: as above
FBXO6 (human), sequence (Q9NRD1 whole entry): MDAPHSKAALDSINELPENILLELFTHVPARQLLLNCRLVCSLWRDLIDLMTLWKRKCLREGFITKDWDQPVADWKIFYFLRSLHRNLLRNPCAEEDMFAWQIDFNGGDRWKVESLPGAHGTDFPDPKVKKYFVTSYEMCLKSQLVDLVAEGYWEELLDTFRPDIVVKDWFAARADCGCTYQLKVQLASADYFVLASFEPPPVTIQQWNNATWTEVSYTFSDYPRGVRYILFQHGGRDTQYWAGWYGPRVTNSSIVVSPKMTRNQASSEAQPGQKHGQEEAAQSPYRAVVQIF

[8] = molecular target: RPS6 (human) (UniProt P62753); assay: as above
[9] = molecular target: ZRANB2 (human) (UniProt O95218); assay: as above
ZRANB2 (human), sequence (O95218 other isoform, or with tags, fused parts or gaps limits assumed): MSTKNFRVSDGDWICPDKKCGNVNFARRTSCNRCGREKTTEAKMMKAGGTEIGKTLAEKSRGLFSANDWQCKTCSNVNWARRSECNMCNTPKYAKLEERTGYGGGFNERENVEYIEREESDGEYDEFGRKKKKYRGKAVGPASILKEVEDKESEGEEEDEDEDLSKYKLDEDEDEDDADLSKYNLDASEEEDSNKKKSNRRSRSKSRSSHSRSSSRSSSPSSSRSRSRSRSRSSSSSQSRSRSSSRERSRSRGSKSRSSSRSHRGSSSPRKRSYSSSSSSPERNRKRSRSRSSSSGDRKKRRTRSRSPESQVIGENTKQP

[10] = molecular target: ACSL3 (human) (UniProt O95573); assay: as above
[11] = molecular target: LARP4 (human) (UniProt Q71RC2); assay: as above
[12] = molecular target: DNAJA3 (human) (UniProt Q96EY1); assay: as above
[13] = molecular target: KPNB1 (human) (UniProt Q14974); assay: as above
[14] = molecular target: TCP1 (human) (UniProt P17987); assay: IgG control IP from lysate of cells overexpressing N-FLAG B3GNT2, then mass spectrometry
TCP1 (human), sequence (P17987 whole entry): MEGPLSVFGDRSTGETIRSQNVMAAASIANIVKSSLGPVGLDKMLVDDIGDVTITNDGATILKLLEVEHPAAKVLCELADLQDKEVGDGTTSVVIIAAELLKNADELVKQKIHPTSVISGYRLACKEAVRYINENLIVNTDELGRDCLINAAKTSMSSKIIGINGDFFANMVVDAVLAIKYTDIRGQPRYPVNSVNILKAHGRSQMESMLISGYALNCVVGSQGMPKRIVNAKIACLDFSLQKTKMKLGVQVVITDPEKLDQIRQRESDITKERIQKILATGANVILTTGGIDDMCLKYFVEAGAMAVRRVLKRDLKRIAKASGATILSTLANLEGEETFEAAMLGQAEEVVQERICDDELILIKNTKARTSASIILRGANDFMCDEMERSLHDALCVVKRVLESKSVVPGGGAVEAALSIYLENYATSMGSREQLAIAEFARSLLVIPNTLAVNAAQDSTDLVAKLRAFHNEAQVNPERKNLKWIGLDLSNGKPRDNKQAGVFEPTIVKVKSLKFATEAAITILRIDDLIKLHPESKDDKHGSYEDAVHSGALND

[15] = molecular target: EIF3I (human) (UniProt Q13347); assay: as above
EIF3I (human), sequence (Q13347 whole entry): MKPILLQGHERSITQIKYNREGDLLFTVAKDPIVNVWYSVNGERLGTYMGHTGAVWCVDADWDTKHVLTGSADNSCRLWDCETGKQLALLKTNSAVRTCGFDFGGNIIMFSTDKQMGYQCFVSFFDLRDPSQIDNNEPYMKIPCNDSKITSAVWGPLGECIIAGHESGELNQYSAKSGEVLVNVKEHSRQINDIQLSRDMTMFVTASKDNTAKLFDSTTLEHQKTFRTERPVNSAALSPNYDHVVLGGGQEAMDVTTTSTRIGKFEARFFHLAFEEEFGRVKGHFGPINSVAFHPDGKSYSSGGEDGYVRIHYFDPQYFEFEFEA

[16] = molecular target: CPSF6 (human) (UniProt Q16630); assay: as above
CPSF6 (human), sequence (Q16630 other isoform, or with tags, fused parts or gaps limits assumed): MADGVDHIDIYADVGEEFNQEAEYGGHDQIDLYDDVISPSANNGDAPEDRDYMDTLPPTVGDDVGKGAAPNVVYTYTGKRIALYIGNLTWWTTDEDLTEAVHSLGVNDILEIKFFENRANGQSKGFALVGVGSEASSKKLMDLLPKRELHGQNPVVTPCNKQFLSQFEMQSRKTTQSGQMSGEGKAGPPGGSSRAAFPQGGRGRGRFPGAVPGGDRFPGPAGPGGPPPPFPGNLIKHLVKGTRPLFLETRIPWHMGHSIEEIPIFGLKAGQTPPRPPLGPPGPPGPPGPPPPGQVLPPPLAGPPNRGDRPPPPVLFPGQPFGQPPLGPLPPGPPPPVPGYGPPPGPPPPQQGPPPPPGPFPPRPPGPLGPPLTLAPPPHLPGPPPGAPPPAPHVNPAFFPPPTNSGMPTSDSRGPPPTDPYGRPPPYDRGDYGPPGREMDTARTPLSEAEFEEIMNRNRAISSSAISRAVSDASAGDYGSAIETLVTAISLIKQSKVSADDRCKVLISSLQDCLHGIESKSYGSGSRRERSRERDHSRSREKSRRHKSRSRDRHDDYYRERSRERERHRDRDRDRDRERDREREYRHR

[17] = molecular target: TAF15 (human) (UniProt Q92804); assay: as above
[18] = molecular target: MAGED2 (human) (UniProt Q9UNF1); assay: as above
[19] = molecular target: CAPRIN1 (human) (UniProt Q14444); assay: as above
[20] = molecular target: KHDRBS1 (human) (UniProt Q07666); assay: as above
[21] = molecular target: MARS (human) (UniProt P56192); assay: co-IP with anti-FLAG, mass spectrometry; lysate of cells with N-FLAG B3GNT2
MARS (human), sequence (P56192 whole entry): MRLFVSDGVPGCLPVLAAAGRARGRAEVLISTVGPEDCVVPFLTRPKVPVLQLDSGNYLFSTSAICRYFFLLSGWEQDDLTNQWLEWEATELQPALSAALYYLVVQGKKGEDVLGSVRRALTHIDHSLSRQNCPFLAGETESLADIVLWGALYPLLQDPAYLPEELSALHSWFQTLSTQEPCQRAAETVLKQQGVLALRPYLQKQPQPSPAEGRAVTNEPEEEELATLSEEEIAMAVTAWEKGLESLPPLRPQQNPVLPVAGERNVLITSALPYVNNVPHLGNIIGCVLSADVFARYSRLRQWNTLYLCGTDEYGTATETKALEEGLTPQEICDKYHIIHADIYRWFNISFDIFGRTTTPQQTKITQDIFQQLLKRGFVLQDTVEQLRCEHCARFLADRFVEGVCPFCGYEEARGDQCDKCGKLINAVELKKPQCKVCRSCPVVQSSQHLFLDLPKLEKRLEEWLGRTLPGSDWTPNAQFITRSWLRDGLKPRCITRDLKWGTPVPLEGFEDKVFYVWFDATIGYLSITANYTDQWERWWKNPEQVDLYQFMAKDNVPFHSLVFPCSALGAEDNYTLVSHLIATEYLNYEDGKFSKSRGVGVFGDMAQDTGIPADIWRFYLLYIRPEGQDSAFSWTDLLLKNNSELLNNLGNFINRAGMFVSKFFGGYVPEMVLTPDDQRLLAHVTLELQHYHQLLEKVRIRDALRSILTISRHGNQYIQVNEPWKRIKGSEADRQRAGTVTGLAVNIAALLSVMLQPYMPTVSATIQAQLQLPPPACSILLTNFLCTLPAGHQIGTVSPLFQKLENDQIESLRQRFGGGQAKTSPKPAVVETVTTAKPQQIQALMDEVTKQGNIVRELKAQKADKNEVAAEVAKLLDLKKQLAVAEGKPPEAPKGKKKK

[22] = molecular target: SLC25A5 (human) (UniProt P05141); assay: as above
[23] = molecular target: MSN (human) (UniProt P26038); assay: as above
[24] = molecular target: ILF3 (human) (UniProt Q12906); assay: as above
[25] = molecular target: EPRS (human) (UniProt P07814); assay: as above
[26] = molecular target: DNAJB11 (human) (UniProt Q9UBS4); assay: as above
[27] = molecular target: SPRR1A (human) (UniProt P35321); assay: as above
[28] = molecular target: ARHGEF2 (human) (UniProt Q92974); assay: as above
[29] = molecular target: ZC3HAV1 (human) (UniProt Q7Z2W4); assay: as above
[30] = molecular target: HSPD1 (human) (UniProt P10809); assay: as above
[31] = molecular target: RPS27 (human) (UniProt P42677); assay: as above
[32] = molecular target: PIGR (human) (UniProt P01833); assay: as above
[33] = molecular target: ARF4 (human) (UniProt P18085); assay: as above
ARF4 (human), sequence (P18085 2-180 limits assumed): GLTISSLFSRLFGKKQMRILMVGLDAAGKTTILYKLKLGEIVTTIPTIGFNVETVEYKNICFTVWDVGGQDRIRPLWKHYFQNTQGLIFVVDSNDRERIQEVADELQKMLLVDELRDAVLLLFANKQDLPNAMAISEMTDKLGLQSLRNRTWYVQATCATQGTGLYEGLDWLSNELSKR

[34] = molecular target: SEL1L (human) (UniProt Q9UBV2); assay: as above
SEL1L (human), sequence (Q9UBV2 22-794 limits assumed): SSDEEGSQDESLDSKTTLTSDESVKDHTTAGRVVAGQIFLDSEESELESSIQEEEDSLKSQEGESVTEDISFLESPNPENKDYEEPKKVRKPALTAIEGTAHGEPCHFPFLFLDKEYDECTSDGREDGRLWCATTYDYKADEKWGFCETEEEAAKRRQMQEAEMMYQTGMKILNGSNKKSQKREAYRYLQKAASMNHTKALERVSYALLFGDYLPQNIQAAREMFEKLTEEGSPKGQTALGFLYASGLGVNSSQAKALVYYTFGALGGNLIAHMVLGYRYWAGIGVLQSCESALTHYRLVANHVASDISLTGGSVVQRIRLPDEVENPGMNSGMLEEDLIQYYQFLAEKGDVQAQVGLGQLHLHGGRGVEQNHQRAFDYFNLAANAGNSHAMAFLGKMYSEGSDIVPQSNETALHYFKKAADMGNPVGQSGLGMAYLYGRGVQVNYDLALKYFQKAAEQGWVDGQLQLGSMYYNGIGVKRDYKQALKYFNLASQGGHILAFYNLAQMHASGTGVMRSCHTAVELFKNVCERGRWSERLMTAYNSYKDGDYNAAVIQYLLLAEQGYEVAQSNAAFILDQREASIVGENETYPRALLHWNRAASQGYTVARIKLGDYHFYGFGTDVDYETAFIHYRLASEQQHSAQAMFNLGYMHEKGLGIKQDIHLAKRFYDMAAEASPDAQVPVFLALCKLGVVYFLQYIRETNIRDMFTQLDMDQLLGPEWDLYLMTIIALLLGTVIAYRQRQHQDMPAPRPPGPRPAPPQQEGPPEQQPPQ

[35] = molecular target: MYO1C (human) (UniProt O00159); assay: as above
[36] = molecular target: PSMD4 (human) (UniProt P55036); assay: as above
[37] = molecular target: EIF4A1 (human) (UniProt P60842); assay: as above
EIF4A1 (human), sequence (P60842 2-406 limits assumed): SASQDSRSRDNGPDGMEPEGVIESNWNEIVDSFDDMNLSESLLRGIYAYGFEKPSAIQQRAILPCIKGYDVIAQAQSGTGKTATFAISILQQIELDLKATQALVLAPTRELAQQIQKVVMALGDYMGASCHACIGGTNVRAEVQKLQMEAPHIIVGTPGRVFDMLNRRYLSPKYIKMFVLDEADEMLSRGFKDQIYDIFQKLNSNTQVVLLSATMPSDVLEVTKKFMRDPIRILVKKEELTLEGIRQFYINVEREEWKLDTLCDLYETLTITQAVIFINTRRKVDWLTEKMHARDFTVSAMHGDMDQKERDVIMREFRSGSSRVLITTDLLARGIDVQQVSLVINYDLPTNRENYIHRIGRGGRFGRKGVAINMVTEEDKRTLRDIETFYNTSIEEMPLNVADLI

[38] = molecular target: UGGT1 (human) (UniProt Q9NYU2); assay: as above

RCN1 (human), sequence (Q15293 30-331 limits assumed): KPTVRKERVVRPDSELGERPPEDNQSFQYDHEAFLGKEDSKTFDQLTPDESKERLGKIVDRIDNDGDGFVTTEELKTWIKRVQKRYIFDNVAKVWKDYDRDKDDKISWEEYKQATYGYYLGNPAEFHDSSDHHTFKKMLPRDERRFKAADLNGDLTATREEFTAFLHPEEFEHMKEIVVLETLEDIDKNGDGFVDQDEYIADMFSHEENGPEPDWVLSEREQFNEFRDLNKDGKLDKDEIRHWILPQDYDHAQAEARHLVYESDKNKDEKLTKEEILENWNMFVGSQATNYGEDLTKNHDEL

With “IgG control (Millipore Sigma 12-371) (antibody)” the co-IP mass spectrometry count [1] was 0, the co-IP mass spectrometry count [2] was 0 and the co-IP mass spectrometry count [3] was 0. The co-IP mass spectrometry count [4] was 0, the co-IP mass spectrometry count [5] was 0 and the co-IP mass spectrometry count [6] was 0. For the same substance, the co-IP mass spectrometry count [7] was 0, the co-IP mass spectrometry count [8] was 2 and the co-IP mass spectrometry count [9] was 0. The co-IP mass spectrometry count [10] was 0, the co-IP mass spectrometry count [11] was 0 and the co-IP mass spectrometry count [12] was 0. It also gave a co-IP mass spectrometry count [13] of 0, a co-IP mass spectrometry count (N-term IgG) [14] of 0 and a co-IP mass spectrometry count (N-term IgG) [15] of 0. It also gave a co-IP mass spectrometry count (N-term IgG) [16] of 28, a co-IP mass spectrometry count (N-term IgG) [17] of 10 and a co-IP mass spectrometry count (N-term IgG) [18] of 0. For the same substance, the co-IP mass spectrometry count (N-term IgG) [19] was 6 and the co-IP mass spectrometry count (N-term IgG) [20] was 10.

For “N-terminal FLAG tagged B3GNT2 (from UniProt Q9NY97 1-397) (enzyme)”, the co-IP mass spectrometry count [21] was 2, the co-IP mass spectrometry count [22] was 19 and the co-IP mass spectrometry count [23] was 3. The co-IP mass spectrometry count [24] was 2, the co-IP mass spectrometry count [25] was 3 and the co-IP mass spectrometry count [26] was 3. The co-IP mass spectrometry count [27] was 4, the co-IP mass spectrometry count [28] was 0 and the co-IP mass spectrometry count [29] was 3. For the same substance, the co-IP mass spectrometry count [30] was 10, the co-IP mass spectrometry count [31] was 2 and the co-IP mass spectrometry count [32] was 2. It also gave a co-IP mass spectrometry count [33] of 4, a co-IP mass spectrometry count [34] of 3 and a co-IP mass spectrometry count [35] of 4. For the same substance, the co-IP mass spectrometry count [36] was 2, the co-IP mass spectrometry count [37] was 2 and the co-IP mass spectrometry count [38] was 2.
